The results in this text go back to paper PMC4895224.

The experiment concerns the target 2-Cysteine peroxiredoxin (BxPrx) of Bursaphelenchus xylophilus (Bursaphelenchus xylophilus (endogenous in the nematode)). Kind of experiment: SDS-PAGE and immunoblot of the inter-molecular dimer; nematodes incubated in 0, 1 and 5 mM H2O2 for 5 min, harvested in 20% TCA, resuspended in SDS-PAGE loading buffer, 12% SDS-PAGE, Western blot with anti-BxPrx serum; 80 ug protein extract per lane. On the technique in general: A western blot detects proteins with antibodies after separation by electrophoresis.

“2-Cysteine peroxiredoxin (BxPrx) of Bursaphelenchus xylophilus (natural protein)” had a stoichiometry N of 2.

The stoichiometry N is the number of molecules, sites or subunits per partner or assembly.
